This is an account of results in patent publication US20170360770A1.

In experiment [1] the target is human leukocyte antigen-DR (HLA-DR), on human cancer cell lines (human). Nature of the experiment: cell-based or functional assay.
Experiment [2] has the same target. Nature of the experiment: cell-based ELISA on HLA-DR positive human melanoma cell line (printed A-374). In general terms: An ELISA detects its analyte on a solid surface through an enzyme-linked reagent.
For experiment [3] the target is unchanged. Briefly: FACS, AlexaFluor-647-labeled IMMU-114 on CAG MM cells. Background: A flow cytometer gives signals particle by particle.
Experiment [4] shares this target. Nature of the experiment: FACS, AlexaFluor-647-labeled IMMU-114 on JVM-3 CLL cells.
The target is the same in experiment [5]. Nature of the experiment: FACS, AlexaFluor-647-labeled IMMU-114 on MN-60 ALL cells.
Experiment [6] has the same target. Nature of the experiment: FACS, AlexaFluor-647-labeled IMMU-114 on MOLM-14 AML cells.
Experiment [7] has the same target. Nature of the experiment: chemiluminescent cell-binding assay on A-375 human melanoma cells.
The target is the same in experiment [8]. Nature of the experiment: chemiluminescent cell-binding assay on SK-MEL-2 human melanoma cells.
Experiment [9] shares this target. Nature of the experiment: chemiluminescent cell-binding assay on SK-MEL-5 human melanoma cells.
For experiment [10] the target is unchanged. Briefly: chemiluminescent cell-binding assay on SK-MEL-28 human melanoma cells.
The target is the same in experiment [11]. Briefly: chemiluminescent cell-binding assay (LUMIGLO), 2 µg/mL antibody on A-375 human melanoma cells, at both 4° C. and RT.
Experiment [12] shares this target. Briefly: chemiluminescent cell-binding assay (LUMIGLO), 2 µg/mL antibody on A-375 cells; reference: humanized anti-CD22 control antibody.

Turning to “IMMU-140 (hL243-CL2A-SN-38), anti-HLA-DR antibody drug conjugate”, in experiment [1], the IC50 (nM), in vitro cytotoxicity, CAG (MM) cells, MTS 96 h (nM (SN-38 equivalents)) is 7.05; the IC50 (nM), in vitro cytotoxicity, JVM-3 (CLL) cells, MTS 96 h (nM (SN-38 equivalents)) was found to be 0.77; the IC50 (nM), in vitro cytotoxicity, MN-60 (ALL) cells, MTS 96 h (nM (SN-38 equivalents)) is 1.29; the IC50 (nM), in vitro cytotoxicity, MOLM-14 (AML) cells, MTS 96 h (nM (SN-38 equivalents)) amounted to 1.21. Also, the Kd in experiment [2] worked out at 0.77 nM.

B1: IMMU-114 (hL243), humanized anti-HLA-DR IgG4 monoclonal antibody (antibody, from a related filing, V domains shown)
VH: QVQLQQSGSELKKPGASVKVSCKASGFTFTNYGMNWVKQAPGQGLKWMGWINTYTREPTYADDFKGRFAFSLDTSVSTAYLQISSLKADDTAVYFCARDITAVVPTGFDYWGQGSLVTVSS
VL: DIQLTQSPSSLSASVGDRVTITCRASENIYSNLAWYRQKPGKAPKLLVFAASNLADGVPSRFSGSGSGTDYTFTISSLQPEDIATYYCQHFWTTPWAFGGGTKLQIKR
Regarding B1, in experiment [1], the IC50 (nM), in vitro cytotoxicity, CAG (MM) cells, MTS 96 h is > 40 nM; the IC50 (nM), in vitro cytotoxicity, JVM-3 (CLL) cells, MTS 96 h is 1.52 nM; the IC50 (nM), in vitro cytotoxicity, MN-60 (ALL) cells, MTS 96 h was > 40 nM; the IC50 (nM), in vitro cytotoxicity, MOLM-14 (AML) cells, MTS 96 h was > 40 nM. In experiment [1], this molecule gave a Maximum % Inhibition at 40 nM, CAG (MM) cells of 28%; a Maximum % Inhibition at 40 nM, JVM-3 (CLL) cells of 65%; a Maximum % Inhibition at 40 nM, MN-60 (ALL) cells of 37%; a Maximum % Inhibition at 40 nM, MOLM-14 (AML) cells of 11%. Also, the Mean fluorescence intensity (MFI) in [3] worked out at 80700 MFI. In [4], the Mean fluorescence intensity (MFI) was found to be 78700 MFI. Besides, the Mean fluorescence intensity (MFI) in [5] came out at 65800 MFI. The molecule also registered a Mean fluorescence intensity (MFI) in experiment [6] of 5750 MFI. The molecule also registered a fold above background in experiment [7] of 48 fold. The molecule also displayed a fold above background in experiment [8] of 2 fold. For the same molecule, in [9], the fold above background was 12 fold. The molecule further gave a fold above background in experiment [10] of 25 fold. Also, the dissociation constant (Kd) in experiment [2] came to 0.65 nM. Moreover, in experiment [11], the fold mean luminescence over background was > 48 fold. Besides, the fold mean luminescence over non-specific control in experiment [12] was > 25 fold.

The term Kd denotes the constant that tells how readily two partners part at equilibrium. Read a high Kd as a looser complex.
